Here are results for 40 sequences from the nanobody polyreactivity screen of Harvey et al. (2022).

This series can be described thus: yeast display, Sf9 membrane polyspecificity reagent, FACS + sequencing; frameworks hold sequencing errors. Put shortly: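 Synthetic nanobody libraries on Saccharomyces cerevisiae BJ5465 were galactose-induced for 36–48 hours, stained 1 hour at 4 °C with 10% biotinylated, detergent-solubilized Sf9 membrane reagent and enriched on streptavidin microbeads. FACS then separated cells into low and high (top ~1%) gates by anti-HA (expression) and streptavidin (reagent binding) fluorescence. Genes were colony-PCR amplified, MiSeq 2 × 250 sequenced and CDR-length filtered. A clone's polyreactivity label is that of its gate of origin.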
Regarding “QVQLVESGGGLVQAGGSLRLSCAPSGITFRQFTMGWYRQAPGKERELVAAITSSGRTYYADSVKGRFTISLDNAKNTVYLQMNSLKPEDTAVYYCAAGVGGAAHPVSYFTYDYWGQGTQVTVSS”, the “polyreactivity (PSR sort gate)” value was “high polyreactivity”.
As for “QVQLVESGGGLVQAGGSLRLSCAPSGITFSYSAMGWYRQAPGKERELVAAISGSGTSTYYADSVKGRFTISRDNAKNTVYVQMNSLKPEVTAVYYCAAKGRKSVYSRNSWGQGTQVTVSS”, the entry is “high polyreactivity”; as for “QVQLVESGGGLVQAGGSLRLSCAPSGITFYKYAMGWYRQAPGKERELVATISRRGGTTYYADSVKGRFTISRDNAKNTVYLQMNSLKPEDTAVYYCNADSRTYRYYWSYGYWGQGTQVTVSS”, “high polyreactivity”; as for “QVQLVESGGGLVQAGGSLRLSCAPSGLIFYGYAMGWYRQAPGKERELVAAISCSGGRTYYADSVKGRFTISRDNAKNTVYLQMNSLKPEDTAVYYCNVRNRYRPYLPFWPDDYWGQGTQVTVSS”, “high polyreactivity”.
As for “QVQLVESGGGLVQAGGSLRLSCAPSGLIFYRYAMGWYRQAPGKERELVAAITRGGSTHYADSVKGRFTISRDNAKFTVYLQMNSLKPEDTAVYYCAATFKGRIYRYEYWGQGTQVTVSS”, the entry is “high polyreactivity”.
The same measure for “QVQLVESGGGLVQAGGSLRLSCAPSGLTFDVYAMGWYRQAPWKQRELVAAISSIGGSTYYADSVKGRFTISRDTAKNTVYVQMNSLKPEDTAVYYCAAAISLYSYDYWGQGTQVTVSS”: “low polyreactivity”; for “QVQLVESGGGLVQAGGSLRLSCAPSGLTFKDYTMGWYRQAPGKERELVAAISKSGGRTYYADSVKGRFTISRDNAKNTVYLQMNSLKPEDTAVYYCNADSRTYRYYWSYGYWGQGTQVTVSS”: “high polyreactivity”.
In the case of “QVQLVESGGGLVQAGGSLRLSCAPSGLTYRRYTMGWYRQAPGKEREFVAAISWGGDSTYYADSVKGRFTISRDNAKNTVYLQLTSLKPEDTAVYYCAADFLYIYNYWGQGTQVTVSS”, the “polyreactivity (PSR sort gate)” value is “high polyreactivity”.
As for “QVQLVESGGGLVQAGGSLRLSCAPSGRIFFHYAMGWYRQAPGKERELVAAISRRGGNTYYADSVKGRFTISRDNAKNTVYLQMNRLKPEDTAVYYCAAQYRVGYDYWGQGTQVTVSS”, the entry is “high polyreactivity”; as for “QVQLVESGGGLVQAGGSLRLSCAPSGRIFHQYAMGFYRKSPGKERELVAAITWSGGSTHYADSVKGRYTISRDNAKNTVYLQLNSLKPEDTAVYYCAARKSGGLLDYWGQGTQVTVSS”, “low polyreactivity”.
As for “QVQLVESGGGLVQAGGSLRLSCAPSGRIFPGYAMGWYRQAPGKERELVAAISTNGGRTYYADSVKGRFTISRDNAKNTVYLQMNSLKPEDTAVYYCNAARAVYTQKRFDSWGQGTQVTVSS”, the entry is “high polyreactivity”; as for “QVQLVESGGGLVQAGGSLRLSCAPSGRIFQWYAMGWYRQAPGKERELVAAIRNGGTTNYADSVKGRFTISRDNAKNTVYLQMNSVIPVDTAVYYCNADKYRTWDFQPRYPGGYWGQGTQVTVSS”, “low polyreactivity”.
The same measure for “QVQLVESGGGLVQAGGSLRLSCAPSGRIFSHYAMGWYRQAPGKERELVAAITSDGSTNYADSVKGRFTISRDNAKKTVYLQMNSLKPEDTAVYYSAKYVHIPDYYYLFGSYDYWGQGTQVTVSS”: “low polyreactivity”; for “QVQLVESGGGLVQAGGSLRLSCAPSGRIFYGYAMGWYRQAPGKERELVAAITSGSRTNYADSVKGRFTISRDNAKNTVYLQMNSLKPEDTAVYYCHSLYGSYLYSLVHTSRYDYWGQGSQVTVSS”: “low polyreactivity”; for “QVQLVESGGGLVQAGGSLRLSCAPSGRIIYRYAIGWYRQAPRKETDLVAAITIGGRTNYADSVKGRFTISRDNANNPVYLEMISLKPEDTAVYYCAVVLYTRYPPRVRYYYWGQGTQVTVSS”: “high polyreactivity”.
With “QVQLVESGGGLVQAGGSLRLSCAPSGRISFRYAMGWYRQAPGKERELVAAINRGGITNYADSVKGRFTISRDNAKNTVYLQMNSLKPEDTADYYCAAEGFYDYYNGFDYSGQGTQVTVSS”, the “polyreactivity (PSR sort gate)” value is reported as “high polyreactivity”.
The same measure for “QVQLVESGGGLVQAGGSLRLSCAPSGRTFDQYAMGWYRQAPGKERELVADITWSGGTTRYADSVKGRFTISRDHAKNTVYLQMNSLKPEDTAVYYCAVEVTWGYNYWGQVTQVTVSS”: “low polyreactivity”; for “QVQLVESGGGLVQAGGSLRLSCAPSGRTFGRYAMGWYRQAPGKERELVAAITRSGGSTYYADSVKGRFTISRDIAKNTVYLQMNSLKPEDTAVYYCNAGWRLGRGYWGQGTEVTVSS”: “high polyreactivity”; for “QVQLVESGGGLVQAGGSLRLSCAPSGRTFGVYAMGWYRQAPGKERELVATISFNVASTYADSVKGRFTISRDNAKNTVYLQMNSLKPEDTAVYYCAVTAVRPLPLDSGYDYWGQGTQVTVSS”: “low polyreactivity”.
As to “QVQLVESGGGLVQAGGSLRLSCAPSGRYYAMGWNRQAPGKEREMVAAISSGGSTNYADSVKGRFTISRDNAKNTVYLQMNSLKPEDTAVYYCAALIRQLRYYLYYYWGQGTQVTVSS”, the “polyreactivity (PSR sort gate)” value is “high polyreactivity”.
As for “QVQLVESGGGLVQAGGSLRLSCAPSGSIFAQYAMGWYRQAPGKERELVATISSVGSTNYADSVKGRFTISRDNAKNTVYLQMNSLKPEDTAVYYCNAVRSGWGYFYGLNYWGQGTQVTVSS”, the entry is “low polyreactivity”; as for “QVQLVESGGGLVQAGGSLRLSCAPSGSIFDCNAMGWYRQAPGKERELVAAISVSGGSTYYADSVKGRFTISRDNAKNTVYLQMNSLKPEDKAVYYCAAETWTDGWYYDYWGQGTQVTVSS”, “high polyreactivity”; as for “QVQLVESGGGLVQAGGSLRLSCAPSGSIFGSYAMGWYRQAPGKERELVAAIRRSSASTYYADSVKGRFTISRDNAKNTVYLQMNSLKPEDTAVYYCATQSYSYYGYRYRYAAYDYWGQGTQVTVSS”, “high polyreactivity”.
The same measure for “QVQLVESGGGLVQAGGSLRLSCAPSGSIFGYYTMGCYRQAPGKEREFVAAISYSGGSTYYADSVKGRFTISRDNANNTVYLQMNSLKPEDTAVYYCAARLYYFRGFKYYYWGQGTQVTVSS”: “low polyreactivity”.
The same measure for “QVQLVESGGGLVQAGGSLRLSCAPSGSIFHYYAMGWYRQAPGKERELVAAISWSGGRTNYADSVKGRFTISSDNAKNTVYLQMNSLKPEDTAVYYCAAGNSFSDRGHRVYFQYYYWGQGTQVTVSS”: “high polyreactivity”; for “QVQLVESGGGLVQAGGSLRLSCAPSGSIFIRNAMGWYRQAPGKERELVAAISGSGSSTYYADSVKGRFTISRDNAKNTVYLQMNSLKPEDTAVYYCNTDRTHSYQYGGYDYWGQGTQVTVSS”: “low polyreactivity”; for “QVQLVESGGGLVQAGGSLRLSCAPSGSIFRGYAMGWYRQAPGKERELVAAISSGGSTYYADSVKGRFTISRDNAKNTVDLQMNSLKPEDTAVYYCATSTYAYRRISYYSWGQCTQVTVSS”: “high polyreactivity”.
Turning to “QVQLVESGGGLVQAGGSLRLSCAPSGSIFRLYAMGWYRQAPGKERELVAAITSSGGRTYYADSVKGRFTISRDNAKNTVYLQINSLKPVDTAVYYCAAVGNRGDDYYWGQGTQVTVSS”, the “polyreactivity (PSR sort gate)” value is given as “high polyreactivity”.
The same measure for “QVQLVESGGGLVQAGGSLRLSCAPSGSIFRWYAMGWYRQAPGKERELVAAITSGGSTYYADSVKGRFTISRDNAKNTVYVQMNSLKPEDTAVYYCNAAKLASHTYDYWGQGTQVTVSS”: “low polyreactivity”; for “QVQLVESGGGLVQAGGSLRLSCAPSGSILGSNAMGGYRQAPGKERELVAAITSSGGSTYYADSVKGRFTISRDNAKNTVYLQMNSLKPEDTAVYYCNADATDSYPEKDYHDSWGQGTQVTVSS”: “low polyreactivity”.
In the case of “QVQLVESGGGLVQAGGSLRLSCAPSGSIYDDYAMGWYRQAPGKERELVAAISSSGTSTYYADSVKGRFTISRDNAKNTVYLQMIRLKPEDTAGYYCAARSAILKSGYLMDYWGQGTLVTVSS”, the “polyreactivity (PSR sort gate)” value is recorded as “low polyreactivity”.
For the sequence “QVQLVESGGGLVQAGGSLRLSCAPSGSTFGSNAMGWYRQAPGKERELVAAINSGDSTSYADSVKGRFTISRDNAKNTVYLQMNSLKPEDTAGYYCATRSYTFVWRHDYWGQGTQVTVSS”, the “polyreactivity (PSR sort gate)” value is recorded as “low polyreactivity”.
With “QVQLVESGGGLVQAGGSLRLSCAPSGSTFGWYAMGWYRQAPGKESELFAAITGDSASTYYADSVKGRFTISRDNAKNTVYLQMNSLKQEDTAVYYCAATKFSDFAYEAVIGYGYWGQGTQVTVSS”, the “polyreactivity (PSR sort gate)” value is on record as “low polyreactivity”.
The same measure for “QVQLVESGGGLVQAGGSLRLSCAPSGSTFSGYAMGWYRQAPGKEREFVATISISGCSTYYADSVKGRFTISRDNAKNTVYLQMNSLKPEDTAVYYCAKDSGSYRVGIYEPFPYGYWGQGTQVTVSS”: “low polyreactivity”; for “QVQLVESGGGLVQAGGSLRLSCAPSGSTFSHNAMGWYRQAPGKEREFVAAISWSGGGTYADSVKGRFTISRDYAKNTVYLQMNSLKPEDTAVYYCNKVSYRSSSSSWFDYWGQGTQVTVSS”: “low polyreactivity”; for “QVQLVESGGGLVQAGGSLRLSCAPSGSTFTHNALGWYRQAPGKERELVAAINNRGGTTYYADSVKGRFTISRDNAKNTVLLQMNSLKPEDIAVYYCNARYHYGRYGYWGQGTQVTVSS”: “high polyreactivity”.
Take “QVQLVESGGGLVQAGGSLRLSCAPSGSTFYPYAMGWYRQAPGKEREFVAAIRSSGTSTYYADSVKGRFTISRDNAKNTVYLQMNSLKPEDTAVYYCAARVRGYSVTRTKPASIGGGSWGQGTQVTVSS”: the “polyreactivity (PSR sort gate)” value is “high polyreactivity”.
Take “QVQLVESGGGLVQAGGSLRLSCAPSGSTFYRYAMGWYRQAPGKERELVAAISSSGGRTYYADSVKGRFTISRDNAKNTDYLQMNSLKPEDTAVYYCAADYTKHYWGQGTQVTVSS”: the “polyreactivity (PSR sort gate)” value was “high polyreactivity”.
With “QVQLVESGGGLVQAGGSLRLSCAPSGSTSYLYAMGWYRQAPGKERELVATITTRSGSTYYADSVKGRFTISRDNAKNTVYIQMNSLKPEDTAVYYCAARWISVWSEGAEHDYWGQGTQVTVSS”, the “polyreactivity (PSR sort gate)” value is “low polyreactivity”.
As for “QVQLVESGGGLVQAGGSLRLSCAPSRFIFFFYAMGWYRQAPGKERELVAAISDGVSTYYADSVKGRFTISRDNAKNTVYLQKNSLKPDDTAVYYCAVSRGDDPEFDYWGKGTQVTVSS”, the entry is “low polyreactivity”.
